Legend:
HE4 = target: T1, HE4 (UniProt Q14508 31-124); assay: SPR (Biacore T100), antibody captured by Protein A, antigen injected
T1 sequence (looked up): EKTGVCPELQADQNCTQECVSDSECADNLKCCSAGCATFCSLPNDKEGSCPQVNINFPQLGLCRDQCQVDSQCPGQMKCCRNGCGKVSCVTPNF

CEACAM1 = target: T2, CEACAM1 (UniProt P13688 35-428, limits assumed); assay: as above
T2 sequence (looked up): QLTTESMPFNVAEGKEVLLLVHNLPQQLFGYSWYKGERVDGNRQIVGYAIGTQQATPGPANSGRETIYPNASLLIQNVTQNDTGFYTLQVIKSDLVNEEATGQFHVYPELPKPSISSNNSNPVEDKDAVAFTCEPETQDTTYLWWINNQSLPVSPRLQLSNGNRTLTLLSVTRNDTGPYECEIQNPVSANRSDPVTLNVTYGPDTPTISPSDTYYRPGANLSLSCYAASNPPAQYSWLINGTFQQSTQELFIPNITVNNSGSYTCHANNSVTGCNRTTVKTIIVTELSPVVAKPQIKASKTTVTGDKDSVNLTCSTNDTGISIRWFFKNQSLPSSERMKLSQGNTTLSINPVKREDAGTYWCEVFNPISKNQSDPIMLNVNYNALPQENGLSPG

CEACAM3 = target: T3, CEACAM3 (UniProt P40198 35-155, limits assumed); assay: as above
T3 sequence (looked up): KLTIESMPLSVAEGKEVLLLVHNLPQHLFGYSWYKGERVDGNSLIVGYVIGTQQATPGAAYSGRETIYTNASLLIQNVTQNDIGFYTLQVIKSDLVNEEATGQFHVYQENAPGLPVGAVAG

CEACAM6 = target: T4, CEACAM6 (UniProt P40199 35-320, limits assumed); assay: as above
T4 sequence (looked up): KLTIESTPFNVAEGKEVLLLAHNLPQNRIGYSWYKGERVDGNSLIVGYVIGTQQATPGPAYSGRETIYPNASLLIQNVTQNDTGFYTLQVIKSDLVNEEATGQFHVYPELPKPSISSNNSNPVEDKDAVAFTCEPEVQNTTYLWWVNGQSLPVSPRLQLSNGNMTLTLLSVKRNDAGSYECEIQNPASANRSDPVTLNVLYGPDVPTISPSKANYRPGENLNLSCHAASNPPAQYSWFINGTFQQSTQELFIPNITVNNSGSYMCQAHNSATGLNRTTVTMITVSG

CEACAM8 = target: T5, CEACAM8 (UniProt P31997 35-320, limits assumed); assay: as above
T5 sequence (looked up): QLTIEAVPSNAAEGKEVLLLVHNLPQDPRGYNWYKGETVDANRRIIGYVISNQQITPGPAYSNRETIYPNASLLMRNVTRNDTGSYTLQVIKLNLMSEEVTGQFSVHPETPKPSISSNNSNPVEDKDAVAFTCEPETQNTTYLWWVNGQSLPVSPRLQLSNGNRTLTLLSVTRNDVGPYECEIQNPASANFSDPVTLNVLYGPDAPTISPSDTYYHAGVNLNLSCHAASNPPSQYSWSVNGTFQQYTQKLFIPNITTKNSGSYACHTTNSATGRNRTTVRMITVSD

AFP = target: T6, AFP (UniProt P02771 19-609); assay: as above
T6 sequence (looked up): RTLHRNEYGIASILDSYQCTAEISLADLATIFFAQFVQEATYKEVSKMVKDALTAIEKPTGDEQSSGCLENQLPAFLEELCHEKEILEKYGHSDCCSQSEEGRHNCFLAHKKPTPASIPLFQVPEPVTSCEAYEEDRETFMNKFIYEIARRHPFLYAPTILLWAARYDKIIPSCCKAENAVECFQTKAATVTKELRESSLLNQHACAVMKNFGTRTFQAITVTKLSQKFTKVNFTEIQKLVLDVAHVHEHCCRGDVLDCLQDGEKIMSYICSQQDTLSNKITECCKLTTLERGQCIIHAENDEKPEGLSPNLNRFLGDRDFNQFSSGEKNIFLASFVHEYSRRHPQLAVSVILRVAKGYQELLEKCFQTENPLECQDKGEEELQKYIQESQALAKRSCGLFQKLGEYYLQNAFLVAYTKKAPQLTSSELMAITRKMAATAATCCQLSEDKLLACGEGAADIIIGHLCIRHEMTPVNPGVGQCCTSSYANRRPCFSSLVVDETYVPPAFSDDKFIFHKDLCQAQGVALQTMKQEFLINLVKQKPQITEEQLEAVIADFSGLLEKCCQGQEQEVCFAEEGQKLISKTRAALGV

癌胚抗原 (CEA, CEACAM5) = 癌胚抗原 (CEA, CEACAM5) (UniProt P06731); assay: SPR (Biacore T100), antibody captured by Protein A, antigen injected at 100μg/ml

B1: 2D5 连接至带有恒定区的载体 (2D5 nanobody with constant region) (Fc fusion)
chain: ESGGGLVQAGGSLRLSCVASGRTFSSHPMGWFRQAPGKEREFVAGISWSGGSTHYADSVKGRFTISRDTAKNTVYLQMNSLKPEDTAVYYCNAALSERTPIATMPSQYDYWGQGT
notes: not shown: constant region from the vector
- binding result (HE4): no binding (tested: 100μg/ml)
- binding result (CEACAM1): no binding (tested: 100μg/ml)
- binding result (CEACAM3): no binding (tested: 100μg/ml)
- binding result (CEACAM6): no binding (tested: 100μg/ml)
- binding result (CEACAM8): no binding (tested: 100μg/ml)
- binding result (AFP): no binding (tested: 100μg/ml)
- 结合 (SPR binding response) (癌胚抗原 (CEA, CEACAM5)): 53.3

From patent CN107880130A (SHENZHEN GUOCHUANG NANO ANTIBODY TECH CO LTD, dated 2018)
